Experimental data: patent publication US11643467 (dated 2023)

How the values were obtained:
Test in all cases: ELISA
FGFR1-Fc = molecular target: T1, FGFR1-Fc (human, UniProt P11362)
T1 chain: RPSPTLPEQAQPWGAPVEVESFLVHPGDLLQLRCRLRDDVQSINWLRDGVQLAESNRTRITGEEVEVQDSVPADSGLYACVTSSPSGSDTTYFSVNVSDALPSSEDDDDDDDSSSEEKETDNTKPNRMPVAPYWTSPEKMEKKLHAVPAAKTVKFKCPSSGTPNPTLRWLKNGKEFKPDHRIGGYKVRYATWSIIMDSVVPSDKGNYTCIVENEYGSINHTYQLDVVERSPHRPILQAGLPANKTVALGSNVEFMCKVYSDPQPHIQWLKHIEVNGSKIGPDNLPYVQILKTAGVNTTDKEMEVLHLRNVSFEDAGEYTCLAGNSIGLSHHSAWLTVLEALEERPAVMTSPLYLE

FGFR2-Fc = FGFR2-Fc (human, UniProt P21802)
FGFR2-Fc, sequence (P21802 22-377): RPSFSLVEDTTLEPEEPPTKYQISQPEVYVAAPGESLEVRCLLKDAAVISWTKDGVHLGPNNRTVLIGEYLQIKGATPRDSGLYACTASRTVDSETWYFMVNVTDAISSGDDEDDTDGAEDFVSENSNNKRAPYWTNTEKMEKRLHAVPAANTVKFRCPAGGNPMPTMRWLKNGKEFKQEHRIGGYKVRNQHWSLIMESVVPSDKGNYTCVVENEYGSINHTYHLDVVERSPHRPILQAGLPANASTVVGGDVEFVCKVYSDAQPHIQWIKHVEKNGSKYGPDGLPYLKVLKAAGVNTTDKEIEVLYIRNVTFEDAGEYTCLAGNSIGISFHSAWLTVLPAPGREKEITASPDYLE

FGFR3-Fc = molecular target: T2, FGFR3-Fc (human, UniProt P22607)
T2 chain: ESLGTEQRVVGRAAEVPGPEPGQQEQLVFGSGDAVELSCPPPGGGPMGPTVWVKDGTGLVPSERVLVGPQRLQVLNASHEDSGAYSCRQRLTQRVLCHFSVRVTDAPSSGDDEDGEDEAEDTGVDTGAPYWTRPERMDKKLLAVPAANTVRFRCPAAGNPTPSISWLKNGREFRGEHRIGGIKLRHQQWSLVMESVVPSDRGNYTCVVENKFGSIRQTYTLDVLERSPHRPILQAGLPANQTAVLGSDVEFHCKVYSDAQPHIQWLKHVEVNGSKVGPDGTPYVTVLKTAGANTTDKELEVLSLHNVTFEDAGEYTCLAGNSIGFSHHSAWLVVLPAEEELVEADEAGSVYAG

Measured: binding result

B1: ch3B6 (antibody, V domains shown)
VH: EVQLVESGGGLVQPGRSLKLSCAASGFTFSNYYMAWVRQAPKKGLEWVATINPSGTRTYYPDSVKGRFTLSRDSAKSSLYLQMNSLKSEDTATFYCARLYNNYAFDYWGQGVMVTVSS
VL: DVQMTQSPALAVSPGERVSISCRASESVSTLMHWYQQKPGQQPKLLIYGTSNLESGVPARFSGSGSGTDFTLNIDPVEADDTATYFCQQSWNDPPTFGGGTKLELK
no binding: all assays above
